Columns and labels:
Test in all cases: cell-based or functional assay
[1] = biological target: HIV-1 Env of isolate 93TH305 (subtype B) (HIV-1)
[2] = biological target: HIV-1 Env of isolate MG RM-C-028 (subtype C) (HIV-1)
[3] = biological target: HIV-1 Env of isolate SC422661.8 (subtype B) (HIV-1)
[4] = biological target: HIV-1 Env of isolate MGRM-Chronic-B-012 (subtype B) (HIV-1)
[5] = biological target: HIV-1 Env of isolate MG RM-C-026 (subtype C) (HIV-1)
[6] = biological target: HIV-1 Env of isolate 92 BR 020 (subtype B) (HIV-1)
[7] = biological target: HIV-1 Env of isolate VLGCB3 (subtype B) (HIV-1)
[8] = biological target: HIV-1 Env of isolate MGRM-Chronic-B-024 (subtype B) (HIV-1)
[9] = biological target: HIV-1 Env of isolate MGRM-Chronic-B-020 (subtype B) (HIV-1)
[10] = biological target: HIV-1 Env of isolate THR0.18 (subtype B) (HIV-1)
[11] = biological target: HIV-1 Env of isolate JRCSF (subtype B) (HIV-1) (UniProt P20871)
[12] = biological target: HIV-1 Env of isolate MG RM-C-024 (subtype C) (HIV-1)
[13] = biological target: HIV-1 Env of isolate NL43 (subtype B) (HIV-1)
[14] = biological target: HIV-1 Env of isolate MGRM-Chronic-B-002 (subtype B) (HIV-1)
[15] = biological target: HIV-1 Env of isolate TRO.11 (subtype B) (HIV-1)
[16] = biological target: HIV-1 Env of isolate APV_17 (subtype B) (HIV-1)
[17] = biological target: HIV-1 Env of isolate MG RM-C-027 (subtype C) (HIV-1)
[18] = biological target: HIV-1 Env of isolate MGRM-Chronic-B-018 (subtype B) (HIV-1)
[19] = biological target: HIV-1 Env of isolate SF162 (subtype B) (HIV-1) (UniProt P19550)
[20] = biological target: HIV-1 Env of isolate MGRM-Chronic-B-010 (subtype B) (HIV-1)
[21] = biological target: HIV-1 Env of isolate 97ZA012 (subtype C) (HIV-1)
[22] = biological target: HIV-1 Env of isolate MG RM-C-019 (subtype C) (HIV-1)
[23] = biological target: HIV-1 Env of isolate PVO.4 (subtype B) (HIV-1)
[24] = biological target: HIV-1 Env of isolate MGRM-Chronic-B-003 (subtype B) (HIV-1)
[25] = biological target: HIV-1 Env of isolate APV_6 (subtype B) (HIV-1)
[26] = biological target: HIV-1 Env of isolate MG RM-C-025 (subtype C) (HIV-1)
[27] = biological target: HIV-1 92RW008 Env (HIV-1)
[28] = biological target: HIV-1 Env of isolate 98IN022 (subtype C) (HIV-1)
[29] = biological target: HIV-1 Env of isolate MGRM-Chronic-B-017 (subtype B) (HIV-1)
[30] = biological target: HIV-1 Env of isolate MGRM-Chronic-B-011 (subtype B) (HIV-1)
[31] = biological target: HIV-1 Env of isolate 93MW959 (subtype C) (HIV-1)
[32] = biological target: HIV-1 Env of isolate CAAN.A2 (subtype B) (HIV-1)
[33] = biological target: HIV-1 Env of isolate JRFL (subtype B) (HIV-1)
[34] = biological target: HIV-1 Env of isolate 93IN905 (subtype C) (HIV-1)
[35] = biological target: HIV-1 Env of isolate MG RM-C-022 (subtype C) (HIV-1)
[36] = biological target: HIV-1 Env of isolate 6535.3 (subtype B) (HIV-1)
[37] = biological target: HIV-1 Env of isolate MG RM-C-020 (subtype C) (HIV-1)
[38] = biological target: HIV-1 Env of isolate MGRM-Chronic-B-023 (subtype B) (HIV-1)
[39] = biological target: HIV-1 Env of isolate MGRM-Chronic-B-008 (subtype B) (HIV-1)
[40] = biological target: HIV-1 Env of isolate QH0692.42 (subtype B) (HIV-1)
[41] = biological target: HIV-1 Env of isolate MGRM-Chronic-B-001 (subtype B) (HIV-1)
[42] = biological target: HIV-1 Env of isolate MG RM-C-023 (subtype C) (HIV-1)
[43] = biological target: HIV-1 Env of isolate MGRM-Chronic-B-004 (subtype B) (HIV-1)
[44] = biological target: HIV-1 Env of isolate APV_13 (subtype B) (HIV-1)
[45] = biological target: HIV-1 Env of isolate TRJ04551.58 (subtype B) (HIV-1)

Chain of 4995_E20 (PGT-142) (antibody) (VH): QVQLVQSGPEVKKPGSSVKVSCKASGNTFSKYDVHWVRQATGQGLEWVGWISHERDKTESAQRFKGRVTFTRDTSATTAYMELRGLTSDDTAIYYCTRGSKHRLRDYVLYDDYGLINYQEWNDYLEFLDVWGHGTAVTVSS
Chain of 4995_E20 (PGT-142) (antibody) (VL): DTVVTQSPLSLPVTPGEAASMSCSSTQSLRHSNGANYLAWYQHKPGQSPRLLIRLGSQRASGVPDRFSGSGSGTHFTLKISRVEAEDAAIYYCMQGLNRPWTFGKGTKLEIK
Chain of 4993_K13 (PGT-141) (antibody) (VH): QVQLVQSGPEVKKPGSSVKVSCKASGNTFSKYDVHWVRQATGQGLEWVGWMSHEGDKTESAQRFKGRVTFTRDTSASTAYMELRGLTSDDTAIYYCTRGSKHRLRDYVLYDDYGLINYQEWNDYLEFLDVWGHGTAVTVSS
Chain of 4993_K13 (PGT-141) (antibody) (VL): as the sequence (VL) above

4995_E20 (PGT-142) (antibody)
IC50 [1]: 5.86 µg/mL | IC50 [2]: 2.12 µg/mL | IC50 [3]: 3.15 µg/mL | IC50 [4]: > 50 µg/mL | IC50 [5]: > 50 µg/mL | IC50 [6]: 15.1 µg/mL | IC50 [7]: > 50 µg/mL | IC50 [8]: 0.005 µg/mL | IC50 [9]: > 50 µg/mL | IC50 [10]: 0.012 µg/mL | IC50 [11]: 0.01 µg/mL | IC50 [12]: 0.03 µg/mL | IC50 [13]: > 50 µg/mL | IC50 [14]: > 50 µg/mL | IC50 [15]: 0.27 µg/mL | IC50 [16]: 0.628 µg/mL | IC50 [17]: 0.792 µg/mL | IC50 [18]: 0.323 µg/mL | IC50 [19]: > 50 µg/mL | IC50 [20]: > 50 µg/mL | IC50 [21]: > 50 µg/mL | IC50 [22]: 0.003 µg/mL | IC50 [23]: 0.066 µg/mL | IC50 [24]: 0.484 µg/mL | IC50 [25]: 4.72 µg/mL | IC50 [26]: 0.183 µg/mL | IC50 [27]: 0.447 µg/mL | IC50 [28]: 0.001 µg/mL | IC50 [29]: 0.076 µg/mL | IC50 [30]: 0.994 µg/mL | IC50 [31]: 0.001 µg/mL | IC50 [32]: > 50 µg/mL | IC50 [33]: > 50 µg/mL | IC50 [34]: 0.001 µg/mL | IC50 [35]: 0.086 µg/mL | IC50 [36]: > 50 µg/mL | IC50 [37]: 0.446 µg/mL | IC50 [38]: 0.486 µg/mL | IC50 [39]: > 50 µg/mL | IC50 [40]: > 50 µg/mL | IC50 [41]: > 50 µg/mL | IC50 [42]: 0.087 µg/mL | IC50 [43]: 0.172 µg/mL | IC50 [44]: > 50 µg/mL | IC50 [45]: > 50 µg/mL

4993_K13 (PGT-141) (antibody)
IC50 [1]: > 50 µg/mL | IC50 [2]: 13.8 µg/mL | IC50 [3]: 1.66 µg/mL | IC50 [4]: > 50 µg/mL | IC50 [5]: > 50 µg/mL | IC50 [6]: 20.3 µg/mL | IC50 [7]: > 50 µg/mL | IC50 [8]: 0.011 µg/mL | IC50 [9]: > 50 µg/mL | IC50 [10]: 0.007 µg/mL | IC50 [11]: 0.009 µg/mL | IC50 [12]: 0.101 µg/mL | IC50 [13]: > 50 µg/mL | IC50 [14]: > 50 µg/mL | IC50 [15]: 0.383 µg/mL | IC50 [16]: 0.59 µg/mL | IC50 [17]: 3.27 µg/mL | IC50 [18]: 0.572 µg/mL | IC50 [19]: > 50 µg/mL | IC50 [20]: > 50 µg/mL | IC50 [21]: > 50 µg/mL | IC50 [22]: 0.008 µg/mL | IC50 [23]: 0.113 µg/mL | IC50 [24]: 0.4 µg/mL | IC50 [25]: 14.2 µg/mL | IC50 [26]: 0.247 µg/mL | IC50 [27]: 0.579 µg/mL | IC50 [28]: 0.001 µg/mL | IC50 [29]: 0.147 µg/mL | IC50 [30]: 2.24 µg/mL | IC50 [31]: 0.003 µg/mL | IC50 [32]: > 50 µg/mL | IC50 [33]: > 50 µg/mL | IC50 [34]: 0.001 µg/mL | IC50 [35]: 0.381 µg/mL | IC50 [36]: > 50 µg/mL | IC50 [37]: 1.34 µg/mL | IC50 [38]: 0.318 µg/mL | IC50 [39]: > 50 µg/mL | IC50 [40]: > 50 µg/mL | IC50 [41]: > 50 µg/mL | IC50 [42]: 0.153 µg/mL | IC50 [43]: 0.586 µg/mL | IC50 [44]: > 50 µg/mL | IC50 [45]: > 50 µg/mL
